Legend:
[1] = GST activity toward herbicide fluorodifen (HPLC-based assay); type: biochemical; settings: recombinant wheat GST expressed in E. coli, affinity purified; ± standard error
Protocol: (§1) The purified isoenzymes were assayed for GST activity toward herbicides using the HPLC-based assays described by Edwards R. and Cole D. J. (Pesticide Biochemistry and Physiology Vol. 54, pp96-104 (1996)) and the results are presented in Table 2. […] These isoenzymes had additional activities as glutathione peroxidases able to reduce linoleic acid hydroperoxide, a major reaction product formed during membrane peroxidation in plants (Williamson and Beverly. J. Cereal Sci. 8, 1988, 155-163).
(§2) To assay the recombinant fusion proteins for GST activity, the E. coli were grown in the presence of IPTG and then pelleted by centrifugation. The bacteria were then lysed by sonication and the protein precipitated using 80% ammonium sulphate. After resuspension and desalting, GSTs were purified by affinity chromatography. The WIC 3 fusion protein was purified using sulphobromophthalein-S-glutathione affinity chromatography (Mozer et al. Biochem. 22, 1983, 1068-1072) while the other WIC fusion proteins were purified using glutathione-agarose (Mannervik and Guthenberg. Methods Enzymol. 77 1981, 231-235).The purified enzymes were then assayed for GST activities toward herbicides (Table 3) and GST activities toward non-herbicide substrates and glutathione peroxidase activities toward organic hydroperoxides (Table 4).
(§3) A polyclonal antiserum was raised in a rabbit to a mixture of TaGST1-2 and TaGST1-3. When tested against crude extracts from safener-treated wheat shoots the antiserum recognised both the 25 kDa TaGST1 subunit and the 26 kDa safener-inducible TaGST2 and TaGST3 subunits. The antiserum was then used in conjunction with the antiserum raised to TaGST1-1 to immuno screen the cDNA library prepared from fenchlorazole ethyl treated wheat shoots as described in example 1. Duplicate lifts were taken from the plated out library and the first blot screened with the antiserum raised against TaGST1-2 and TaGST1-3. The second blot was screened with the antiserum raised to TaGST1-1. Five plaques were identified from the first blot which were absent from the second blot corresponding to cDNAs encoding TaGST2 or TaGST3 like polypeptides and theses clones were purified and the respective plasmids sequenced. […] The other three clones ICC. ICP and ICV had identical DNA sequences (SEQ ID No. 17) and predicted amino acid sequence (SEQ ID No. 18). GST ICJ was sub-cloned into the pET 11a vector after using PCR to introduce a Nde 1 restriction site into the translation start site, using the primer 5′ AGGTAGTTACATATGGCCGGAGGA 3′ (SEQ ID No. 19) in the amplification. following sub-cloning, the sequence of GST ICJ was re-checked to ensure no PCR induced errors had been introduced. The recombinant GST ICJ was then expressed in E. coli and purified by S-hexylglutathione affinity chromatography. The purified GST ICJ was assayed for activities as a GST (Table 3) and as a glutathione peroxidase (Table 4). […] GST ICV was finally expressed as the respective beta-galactosidase fusion protein using the Bluescript plasmid and assayed for GST activity (Table 3 ) and glutathione peroxidase activity (Table 4) in crude bacterial lysates. The specific activity of GST ICV toward these substrates was then calculated by I) subtracting the low levels of GST and GPOX activity present due the endogenous activities in the E. coli and ii) determining the proportion of protein in the lysate present as recombinant GST ICV from SDS-PAGE analysis, by densitometry analysis of polypeptides stained with Coomassie blue.

[2] = GST activity toward benzyl isothiocyanate; type: biochemical; settings: recombinant wheat GST, affinity purified; ± standard error
Protocol: as §2

[3] = GST activity toward crotonaldehyde; type: biochemical; settings: recombinant wheat GST, affinity purified; ± standard error
Protocol: as §2

GST activity toward CDNB = type: biochemical; settings: recombinant wheat GST expressed in E. coli, affinity purified
Protocol: as §1
To confirm that TaGST1 encoded a GST, it was expressed as a fusion protein with beta-galactosidase using the pBluescript plasmid in E. coli strain SOLR. TaGST1 clones were inoculated into LB liquid medium and were grown overnight at 37/C on all orbital shaker in the presence of IPTG. Bacteria were then pelleted by centrifugation, lysed by sonication and assayed for GST activity toward CDNB and analysed by SDS-PAGE and Western blotting using the anti-TaGSTI-I serum. With all six TaGST1 clones, GST activity toward CDNB could be determined in the crude extracts in the range 30-50 nkat/mg crude lysate.
as §2
as §3, with “The specific activity of GST ICV toward these substrates was then calculated by I) subtracting the low levels of GST and GPOX activity present due the endogenous activities in the E. coli and ii) determining the proportion of protein in the lysate present as recombinant GST ICV from SDS-PAGE analysis, by densitometry analysis of polypeptides stained with Coomassie blue.” left out

[4] = GST activity toward herbicide metolachlor (HPLC-based assay); type: biochemical; settings: recombinant wheat GST expressed in E. coli, affinity purified; ± standard error
Protocol: as §1, §2, §3

[5] = GST activity toward herbicide fenoxaprop-ethyl (HPLC-based assay); type: biochemical; settings: recombinant wheat GST expressed in E. coli, affinity purified; ± standard error
Protocol: as §1, §2, §3

[6] = Glutathione peroxidase activity toward cumene hydroperoxide; type: biochemical; settings: recombinant wheat GST, affinity purified; ± standard error (n = 3)
Protocol: as §2, §3

[7] = target: the molecule itself; assay: subunit composition of purified isoenzymes (anion exchange, reversed-phase HPLC, SDS-PAGE)
Protocol: The component polypeptides in the active fractions were then analysed by silver staining after resolution by sodium dodecyl sulphate polyacrylamide gel electrophoresis (SDS-PAGE). It was concluded that in fenchlorazole-ethyl-treated wheat the polar GSTs were composed of 25 kDa and 26 kDa polypeptides, while the hydrophobic fraction contained 25 kDa, 26 kDa and 24 kDa polypeptides. Further analysis by reversed-phase HPLC confirmed the subunit compositions (FIG. 2). Based on the combined analyses by Q-sepharose, HPLC and SDS-PAGE these GST polypeptides were named as described in Table 1, which also contains details of how these subunits associate together to form the active dimers found in plants and the relative abundance of these subunits in extracts from unsafened and fenchlorazole-ethyl treated (safened) plants.

[8] = GST activity toward ethacrynic acid; type: biochemical; settings: recombinant wheat GST, affinity purified; ± standard error; N.D = not detected
Protocol: as §2

B1: WIC 2: recombinant type I wheat GST, SEQ ID No. 5, amino acid SEQ ID No. 6 (protein)
chain: MAPAVKVYGWAVSPFVARPLLCLEEAGVEYELVSMSRAAGDHRQPDFLARNPFGQVPVLEDGDLTLFESRAIARHVLRKHKPELLGCGSPEAEAMVDVWLEVEAHQYNPAASAIVVQCIILPLLGGARDQAVVDENVAKLKKVLEVYEARLSASRYLAGDDISLADLSHFPFTRYFMETEYAPLVAELPHVNAWWEGLKARPAARKVTELMPPDLGLGKKAE
modifications: Triticum aestivum L.
- GST activity toward fluorodifen [1]: 0.096 ± 0.002 nkat.mg^−1
- GST activity toward benzyl isothiocyanate [2]: 33.3 ± 4.5 nkat.mg^−1
- GST activity toward crotonaldehyde [3]: 5.5 ± 1.3 nkat.mg^−1
- GST activity toward CDNB (GST activity toward CDNB): 187 nkat.mg^−1
- GST activity toward metolachlor [4]: 0.512 ± 0.04 nkat.mg^−1
- GST activity toward fenoxaprop-ethyl [5]: 0.085 ± 0.002 nkat.mg^−1
- Glutathione peroxidase activity toward cumene hydroperoxide [6]: 28.2 ± 1.7 absorbance change at 340 nm.mg^−1

B2: WIC 5: recombinant type I wheat GST, SEQ ID No. 9, amino acid SEQ ID No. 10 (protein)
chain: MAPIKLYGMMLSANVTRVTTLLNELGLEFDFVDVDLRTGAHKHPDFLKLNPFGQIPALQDGDEVVFESRAINRYIATKYGASLLPTPSAKLEAWLEVESHHFYPPARTLVYELVIKPMLGAPTDAAEVDKNAADLAKLLDVYEAHLAAGNKYLAGDAFPLADANHMSYLFMLTKSPKADLVASRPHVKAWWEEISARPAWAKTVASIPLPPAV
modifications: Triticum aestivum L.
- GST activity toward fluorodifen [1]: 0.030 ± 0.002 nkat.mg^−1
- GST activity toward benzyl isothiocyanate [2]: 9.4 ± 2.0 nkat.mg^−1
- GST activity toward crotonaldehyde [3]: 4.5 ± 0.5 nkat.mg^−1
- GST activity toward CDNB (GST activity toward CDNB): 174 nkat.mg^−1
- GST activity toward metolachlor [4]: 0.040 ± 0.004 nkat.mg^−1
- GST activity toward fenoxaprop-ethyl [5]: 0.067 ± 0.003 nkat.mg^−1
- Glutathione peroxidase activity toward cumene hydroperoxide [6]: 1.3 ± 0.2 absorbance change at 340 nm.mg^−1

B3: WIC 3: recombinant type I wheat GST, SEQ ID No. 7, amino acid SEQ ID No. 8; coding sequence identical in WIC 7 and WIC 8 (protein)
chain: MAPVKLYGATLSWNVTRCVAALEEAGVQYEIVPINFGTGEHKSPDHLARNPFGQVPALQDGDLYVFESRAICKYACRKNKPELLKEGDIKESAMVDVWLEVEAHQYTAALSPILFECLIHPMLGGATDQKVIDDNLVKIKNVLAVYEAHLSKSKYLAGDFLSLADLNHVSVTLCLAATPYASLFDAYPHVKAWWTDLLARPSVQKVAALMKP
modifications: Triticum aestivum L.
- GST activity toward fluorodifen [1]: 0.014 ± 0.006 nkat.mg^−1
- GST activity toward benzyl isothiocyanate [2]: 9.0 ± 0.5 nkat.mg^−1
- GST activity toward crotonaldehyde [3]: 6.3 ± 0.9 nkat.mg^−1
- GST activity toward CDNB (GST activity toward CDNB): 2,519 nkat.mg^−1
- GST activity toward metolachlor [4]: 0.053 ± 0.004 nkat.mg^−1
- GST activity toward fenoxaprop-ethyl [5]: 0.093 ± 0.002 nkat.mg^−1
- Glutathione peroxidase activity toward cumene hydroperoxide [6]: 1.4 ± 0.3 absorbance change at 340 nm.mg^−1

B4: Triticum aestivum GST 1 subunit (25 kDa) (enzyme)
chain: MAGEKGLVLLDFWVSPFGQRVRIALAEKGLPYEYAEEDLMAGKSDRLLRANPVHKKIPVLLHDGRAVNESLIILQYLEEAFPDAPALLPSDPYARAQARFWADYVDKKVYDCGSRLWKLKGEPQAQARAEMLDILKTLDGALGDKPFFGGDKFGFVDAAFAPFTAWFHSYERYGEFSLPEVAPKIAAWAKRCGERESVAKSLYSPDKVYDFIGLLKKKYGIE
notes: Native subunit in wheat shoot extracts; also called TaGST1
- binding result [7]: binds

B5: WIC 4: recombinant type I wheat GST, SEQ ID No. 11, amino acid SEQ ID No. 12; coding sequence identical in WIC 10 (protein)
chain: MAPVKVFGPAMSTNVARVLVCLEEVGAEYEVVDIDFKAMEHKSPEHLVRNPFGQIPAFQDGDLLLFESRAIARYVLRKYKKNEVDLLREGDLKEAAMVDVWTEVDAHTYNPAISPIVYECSSTAHARLPTNQTVVDESLEKLKNVLEVYEARLSKHDYLAGDFVSFADLNHFPYTFYFMATPHAALFDSYPHVKAWWERIMARPAVKKLAAQMVPKKP
modifications: Triticum aestivum L.
- GST activity toward fluorodifen [1]: 0.036 ± 0.004 nkat.mg^−1
- GST activity toward benzyl isothiocyanate [2]: 4.2 ± 0.4 nkat.mg^−1
- GST activity toward crotonaldehyde [3]: 5.5 ± 0.6 nkat.mg^−1
- GST activity toward ethacrynic acid [8]: 1.4 ± 0.3 nkat.mg^−1
- GST activity toward CDNB (GST activity toward CDNB): 980 nkat.mg^−1
- GST activity toward metolachlor [4]: 0.037 ± 0.003 nkat.mg^−1
- GST activity toward fenoxaprop-ethyl [5]: 0.012 ± 0.001 nkat.mg^−1
- Glutathione peroxidase activity toward cumene hydroperoxide [6]: 6.2 ± 0.3 absorbance change at 340 nm.mg^−1

Source: patent US6730828B1, “Isolated nucleic acids encoding a wheat glutathione transferase, plants transformed therewith and methods of use thereof” (Aventis Agriculture Limited, priority 1997, dated 2004)
